Experimental data reported in patent US20160177276A1 (Merck KGaA, published 2016).

Tests used:
[1] = biological target: T1, CD47 (human, UniProt Q08722 19-323); assay: flow cytometry on CD47-transfected CHO cells
T1 construct: whole, on cells; Human by the cells used (blood of human donors; human Ramos, A549, BT474, Raji, Namalwa cells); also called human CD47

[2] = biological target: T1, CD47; assay: flow cytometry on CD47-high (CD47-transfected) CHO cells
Description: (§1) After washing again, cells were fixed with 1% formaldehyde in PBS. Cells were analyzed by flow cytometry (MACSQuant, Miltenyi Biotec, Cologne, Germany).

[3] = biological target: T1, CD47; assay: flow cytometry on CD47-low human Ramos cells
Description: as §1

[4] = biological target: T2, HER2 (human, UniProt P04626 23-1255); assay: flow cytometry on BT474 cells
T2 construct: whole, on cells; The cells carry CD47 as well
Description: After washing with PBS+1% FBS, cells were incubated with FITC F(ab′)2 goat Anti-Human IgG, Fcγ (Jackson ImmunoResearch, West Grove, Pa.), diluted 1:200 in PBS+1% FBS for 60 min on ice. After washing again, cells were fixed with 1% formaldehyde in PBS. Cells were analyzed by flow cytometry (MACSQuant, Miltenyi Biotec, Cologne, Germany).

binding result [1]	EC50 [2]	EC50 [3]	binding result [4]	Binder
no binding				anti-CD20 huIgG1 (antibody, V domains shown, Control in standard monoclonal antibody format, huIgG1, based on 2B8 (rituximab); not shown: rest of the human IgG1 heavy chain) VH: QVQLQQPGAELVKPGASVKMSCKASGYTFTSYNMHWVKQTPGRGLEWIGAIYPGNGDTSYNQKFKGKATLTADKSSSTAYMQLSSLTSEDSAVYYCARSTYYGGDWYFNVWGAGTTVTVSA VL: QIVLSQSPAILSASPGEKVTMTCRASSSVSYIHWFQQKPGSSPKPWIYATSNLASGVPVRFSGSGSGTSYSLTISRVEAEDAATYYCQQWTSNPPTFGGGTKLEIKR
	7 nM	6 nM		chimeric antibody B6H12/huIgG1 (antibody, V domains shown, also called anti-CD47; anti-CD47 huIgG1) VH: EVQLQESGGDLVKPGGSLKLSCAASGFTFSGYGMSWVRQTPDKRLEWVATITSGGTYTYYPDSVKGRFTISRDNAKNTLYLQIDSLKSEDTAIYFCARSLAGNAMDYWGQGTTVTVSS VL: DIVITQSPATLSVTPGDRVSLSCRASQTISDYLHWYQQKSHESPRLLIKFASQSISGIPSRFSGSGSGSDFTLSINSVEPEDVGVYYCQNGHGFPRTFGGGTKLEIKR
no binding			binds	Fcab(HER2) (other, also called anti-HER2 Fcab H10-03-6) EPKSSDKTHTCPPCPAPELLGGPSVFLFPPKPKDTLMISRTPEVTCVVVDVSHEDPEVKFNWYVDGVEVHNAKTKPREEQYNSTYRVVSVLTVLHQDWLNGKEYKCKVSNKALPAPIEKTISKAKGQPREPQVYTLPPSRDEYLYGDVSLTCLVKGFYPSDIAVEWESNGQPENNYKTTPPVLDSDGSFFLYSKLTVPRHSARMWRWAHGNVFSCSVMHEALHNHYTQKSLSLSPGK
